Measurements from patent US20230002478A1.

What was measured:
[1] = biological target: SARS-CoV-2 S1-Fc (South Africa 178-08) (SARS-CoV-2), P0DTC2; test: SPR; details: remark: other sources report otherwise
[2] = biological target: SARS-CoV-2 S Trimer (SARS-CoV-2), P0DTC2; test: SPR; details: remark: other sources report otherwise

B1: 6-63 (Fc fusion)
chain: EVQLVESGGGLVQPGGSLRLSCAASGQTFNMGWFRQAPGKEREFVAAIGSGGSTSYADSVKGRFTISADNSKNTAYLQMNSLKPEDTAVYYCWRLGNDYFDYWGQGTLVTVSS
Kd [1]: 0.0268 µM
Kd [2]: 0.00068 µM
